{"source": "patent US20250066745A1", "about": "“MUTANTS AND USE THEREOF” (BGI SHENZHEN, priority 2021, published 2025)", "key": {"[1]": {"assay": "Activity assay of Gaussia luciferase at bacteria solution level (substrate CTZ)", "format": "cell-based", "details": "OrigamiB (DE3) competent cells; 100 μL induced bacteria solution; CTZ final 100 μM; FIG. 4", "description": "The expression plasmids pET28a-Gluc wt and pCold-no sp Glue obtained in Example 1 were individually transformed into BL21 (DE3) competent cells or OrigamiB (DE3) chemically competent cells (WEIDI BIO, EC1020S) and applied to plate medium. Then single colonies were picked from the plate for culture overnight at 37° C. The cultured clones were diluted at the ratio of 1:100 the next day, and transferred into 3 mL of fresh LB medium with ampicillin at 100 μg/mL, shaked at 37° C., 200 rpm until OD600≈0.5-0.6, followed by cooling on ice for 1 hour. IPTG was added at a final concentration of 1 mM as inducer for induction overnight at 16° C.\nThe induced bacteria solution, taken for 100 μL, was moved into a black 96-well plate, then added with 100 μL of a substrate CTZ (purchased from BIOLAB) at a final concentration of 100 μM. The luminescence intensity was read with a self-luminescence module of a microplate reader. […] Accordingly, the subsequent experiments were conducted with the Gaussia luciferase without the signal peptide."}, "[2]": {"assay": "Luminescence activity assay of purified Gaussia luciferase mutants on coelenterazine", "format": "biochemical", "details": "for Measured luminescence intensity (CTZ): purified luciferase 1 μg/mL, 10 μL, 90 μL substrate coelenterazine 100 μM; for Ratio of luminescence intensities of advantageous mutant to wild-type Gaussia luciferase without signal peptide (CTZ): substrate coelenterazine 100 μM, vs no sp Gluc average", "in_short": "(§1)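 Readout: luminescence intensity, as ratio to signal-peptide-free wild-type enzyme. Enzyme 1 μg/mL, substrate 100 μM stock, 10 μL + 90 μL; buffer 50 mM Tris-HCl pH 8.0, 100 mM NaCl, 0.1% Tween-20.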"}, "[3]": {"assay": "Luminescence activity assay of purified Gaussia luciferase mutants on fluoro-coelenterazine", "format": "biochemical", "details": "for Measured luminescence intensity (f-CTZ): purified luciferase 1 μg/mL, 10 μL, 90 μL substrate fluoro-coelenterazine 100 μM; for Ratio of luminescence intensities of advantageous mutant to wild-type Gaussia luciferase without signal peptide (f-CTZ): substrate fluoro-coelenterazine 100 μM, vs no sp Gluc average", "in_short": "as §1"}, "[4]": {"assay": "Luminescence activity assay of purified Gaussia luciferase mutants on coelenterazine derivative ZS2", "format": "biochemical", "details": "for Measured luminescence intensity (ZS2): purified luciferase 1 μg/mL, 10 μL, 90 μL substrate ZS2 100 μM; for Ratio of luminescence intensities of advantageous mutant to wild-type Gaussia luciferase without signal peptide (ZS2): substrate ZS2 100 μM, vs no sp Gluc average", "in_short": "as §1"}, "[5]": {"assay": "Substrate specificity test of combinatorial mutants: activity on coelenterazine derivative ZS26", "format": "biochemical", "description": "In this Example, the protein concentration was determined with a BCA quantitative kit (Thermo Scientific™ Pierce™ BCA Protein Assay Kit) accurately. The purified luciferase obtained in Example 5 was diluted with diluent (50 mM Tris-HCl, pH 8.0, 100 mM NaCl, 0.1% (v/v) Tween-20) to 1 μg/mL. The diluted luciferase, taken for 10 μL, was moved into a black 96-well plate, then added with 90 μL of the substrates coelenterazine, fluoro-coelenterazine or coelenterazine derivative ZS2 (purchased from Biolab) which was diluted into 100 μM with the same diluent, and the luminescence intensity of the plate was read with a self-luminescence module of a microplate reader. The mutation site of the mutant, the measured luminescence intensity, the ratio of luminescence intensities of the advantageous mutants to the wild-type Gaussia luciferase without the signal peptide having the sequence shown in SEQ ID NO: 3 are shown in Table 15. The results of catalytic activity assay of the advantageous mutants relative to the wild-type Gaussia luciferase without the signal peptide having the sequence shown in SEQ ID NO: 3 on substrate coelenterazine are shown in FIG. 6. […] The results of catalytic activity assay of the advantageous mutants relative to the wild-type Gaussia luciferase without the signal peptide having the sequence shown in SEQ ID NO: 3 on substrate fluoro-coelenterazine are shown in FIG. 7.\nThe new mutant library constructed in Example 7 was screened and tested for substrate specificity. Expression and purification schemes were the same as that in Example 5, and the activity assay scheme was the same as that in Example 6. The respective catalytic activities of combinatorial mutants on coelenterazine, fluoro-coelenterazine or coelenterazine derivative ZS2, and coelenterazine derivative ZS26 (purchased from BIOLAB) were assayed, and comparisons among the substrate specificities of the combinatorial mutants were based on the ratios of catalytic activities on two corresponding substrates."}}, "note": "Where “and” joins values, the source holds several entries; their conditions need not be identical. Identical values can stand only once."}
{"molecule": "no sp Gluc: wild type Gaussia luciferase without signal peptide, having a sequence shown in SEQ ID NO: 3 (protein) KPTENNEDFNIVAVASNFATTDLDADRGKLPGKKLPLEVLKEMEANARKAGCTRGCLICLSHIKCTPKMKKFIPGRCHTYEGDKESAQGGIGEAIVDIPEIPGFKDLEPMEQFIAQVDLCVDCTTGCLKGLANVQCSDLLKKWLPQRCATFASKIQGQVDKIKGAGGD", "values": [{"measurement": "luminescence value at bacteria solution level", "setting": "[1]", "result": "highest luminescence value"}, {"measurement": "Measured luminescence intensity (CTZ)", "setting": "[2]", "result": "253597 and 276603 and 266322"}, {"measurement": "Measured luminescence intensity (CTZ)", "setting": "[2]; listed as no sp Gluc average", "result": 265507.3}, {"measurement": "Ratio of luminescence intensities of advantageous mutant to wild-type Gaussia luciferase without signal peptide (CTZ)", "setting": "[2]", "result": "0.96 and 1.04 and 1"}, {"measurement": "Ratio of luminescence intensities of advantageous mutant to wild-type Gaussia luciferase without signal peptide (CTZ)", "setting": "[2]; listed as no sp Gluc average", "result": 1}, {"measurement": "Measured luminescence intensity (f-CTZ)", "setting": "[3]", "result": "5662 and 7198 and 6191"}, {"measurement": "Measured luminescence intensity (f-CTZ)", "setting": "[3]; listed as no sp Gluc average", "result": 6350.333}, {"measurement": "Ratio of luminescence intensities of advantageous mutant to wild-type Gaussia luciferase without signal peptide (f-CTZ)", "setting": "[3]", "result": "0.89 and 1.13 and 0.97"}, {"measurement": "Ratio of luminescence intensities of advantageous mutant to wild-type Gaussia luciferase without signal peptide (f-CTZ)", "setting": "[3]; listed as no sp Gluc average", "result": 1}, {"measurement": "Measured luminescence intensity (ZS2)", "setting": "[4]", "result": "18344 and 20707 and 22415"}, {"measurement": "Measured luminescence intensity (ZS2)", "setting": "[4]; listed as no sp Gluc average", "result": 20488.67}, {"measurement": "Ratio of luminescence intensities of advantageous mutant to wild-type Gaussia luciferase without signal peptide (ZS2)", "setting": "[4]", "result": "0.9 and 1.01 and 1.09"}, {"measurement": "Ratio of luminescence intensities of advantageous mutant to wild-type Gaussia luciferase without signal peptide (ZS2)", "setting": "[4]; listed as no sp Gluc average", "result": 1}]}
{"molecule": "mutant 4-C12: Gaussia luciferase combinatorial mutant encoded by SEQ ID NO: 43 (protein) MKPTENNEDFNIVAVASNFATTDLDADRGKLPGKKLPLEVLKEMEANARKAGCTRGCLICLSKIKCTPKMKKFIPGRCHTYEGDKSTGQGGIGPAIVDIPEIPGFKDMEPMEQFIAQVDLCEDCTTGCLKGLANVQCSDLLKKWLPQRCATFASKIQGQVDKIKGAGGD", "values": [{"measurement": "measured value, CTZ", "setting": "[2]; purified combinatorial mutant, substrate coelenterazine (CTZ)", "result": 1675889}, {"measurement": "measured value, f-CTZ", "setting": "[3]; purified combinatorial mutant, substrate fluoro-coelenterazine (f-CTZ)", "result": 167522}, {"measurement": "measured value, ZS-2", "setting": "[4]; purified combinatorial mutant, substrate coelenterazine derivative ZS2", "result": 773694}, {"measurement": "ratios of catalytic activities on ZS2 relative to ZS26", "setting": "[4]; substrate specificity, FIG. 10, in words", "result": "significantly improved"}, {"measurement": "measured value, ZS-26", "setting": "[5]; purified combinatorial mutant, substrate coelenterazine derivative ZS26", "result": 64057}, {"measurement": "ratio of catalytic activities, ZS2/ZS26", "setting": "[5]; substrate specificity, ZS2 relative to ZS26", "result": 12.08}, {"measurement": "ratio of catalytic activities, CTZ/ZS26", "setting": "[5]; substrate specificity, coelenterazine relative to ZS26", "result": 26.16}, {"measurement": "ratio of catalytic activities, f-CTZ/ZS26", "setting": "[5]; substrate specificity, fluoro-coelenterazine relative to ZS26", "result": 2.62}]}
